Values quoted from earlier work in patent publication US20150290107A1, “COMPOSITIONS FOR TREATMENT OF XEROSTOMIA AND FOR TOOTH TREATMENT” (3 IN 1 DENTAL PLLC, priority 2013, published 2015).

Test system: lean meat
Conditions: usual grade

B1: Papain (protein, UniProt P00784 134-345, looked up)
Papain: IPEYVDWRQKGAVTPVKNQGSCGSCWAFSAVVTIEGIIKIRTGNLNEYSEQELLDCDRRSYGCNGGYPWSALQLVAQYGIHYRNTYPYEGVQRYCRSREKGPYAAKTDGVRQVQPYNEGALLYSIANQPVSVVLEAAGKDFQLYRGGIFVGPCGNKVDHAVAAVGYGPNYILIKNSWGTGWGENGYIRIKRGTGNSYGVCGLYTSSFYPVKN
notes: Protease enzyme; white or grayish-white, slightly hygroscopic powder
- potency: digesting times its weight of lean meat: ~35 times its weight
